As a reminder, the Kd is the free concentration of one partner at which half of the binding sites on the other are occupied at equilibrium, for simple one-to-one binding. High values mean weaker binding, low ones tighter binding. One may read the koff as the rate constant with which the complex falls apart. Broadly, the kon is the rate constant with which the complex forms. Read a low kon as slow association.

To fix the notation:
T1: ALK6 receptor-Fc fusion protein (human, UniProt O00238 14-126)
T1 construct: Bought from R&D Systems or made in-house; not shown: IgG1 Fc domain
T1 sequence (looked up): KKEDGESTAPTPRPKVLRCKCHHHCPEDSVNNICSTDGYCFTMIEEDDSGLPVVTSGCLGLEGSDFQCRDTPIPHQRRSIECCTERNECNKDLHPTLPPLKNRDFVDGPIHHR

B1: murine GDF15 (mGDF15), mature, generated in-house in CHO cells (ligand)
chain: AHPRDSCPLGPGRCCHLETVQATLEDLGWSDWVLSPRQLQLSMCVGECPHLYRSANTHAQIKARLHGLQPDKVPAPCCVPSSYTPVVLMHRTDSGVSLQTYDDLVARGCHCA
B2: hTβRII-hG1Fc fusion protein (R&D Systems) incorporating the wild-type TβRIIshort isoform (Fc fusion)
chain: IPPHVQKSVNNDMIVTDNNGAVKFPQLCKFCDVRFSTCDNQKSCMSNCSITSICEKPQEVCVAVWRKNDENITLETVCHDPKLPYHDFILEDAASPKCIMKEKKKPGETFFMCSCSSDECNDNIIFSEEYNTSNPD
notes: Bought from R&D Systems; also called hTβRII-Fc; TGFβ receptor type II (TβRII)-Fc; not shown: human IgG1 Fc domain
B3: human GDF15 (hGDF15), mature, generated in-house in CHO cells (ligand)
chain: ARNGDHCPLGPGRCCRLHTVRASLEDLGWADWVLSPREVQVTMCIGACPSQFRAANMHAQIKTSLHRLKPDTVPAPCCVPASYNPMVLIQKTDTGVSLQTYDDLLAKDCHCI
notes: also called MIC-1
B4: ALK2 receptor-Fc fusion protein (Fc fusion, human, UniProt Q04771 21-123, looked up)
chain: MEDEKPKVNPKLYMCVCEGLSCGNEDHCEGQQCFSSLSINDGFHVYQKGCFQVYEQGKMTCKTPPSPGQAVECCQGDWCNRNITAQLPTKGKSFPGTQNFHLE
notes: Bought from R&D Systems or made in-house; not shown: IgG1 Fc domain
B5: ALK5 receptor-Fc fusion protein (Fc fusion, human, UniProt P36897 34-126, looked up)
chain: LQCFCHLCTKDNFTCVTDGLCFVSVTETTDKVIHNSMCIAEIDLIPRDRPFVCAPSSKTGSVTTTYCCNQDHCNKIELPTTVKSSPGLGPVEL
notes: Bought from R&D Systems or made in-house; also called TGFβ receptor type I; not shown: IgG1 Fc domain
B6: ALK4 receptor-Fc fusion protein (Fc fusion, human, UniProt P36896 24-126, looked up)
chain: SGPRGVQALLCACTSCLQANYTCETDGACMVSIFNLDGMEHHVRTCIPKVELVPAGKPFYCLSSEDLRNTHCCYTDYCNRIDLRVPSGHLKEPEHPSMWGPVE
notes: as for B4
B7: ALK7 receptor-Fc fusion protein (Fc fusion, human, UniProt Q8NER5 21-113, looked up)
chain: ELSPGLKCVCLLCDSSNFTCQTEGACWASVMLTNGKEQVIKSCVSLPELNAQVFCHSSNNVTKTECCFTDFCNNITLHLPTASPNAPKLGPME
notes: as for B4
B8: fusion protein incorporating the wild-type TβRIIlong isoform (R&D Systems) (Fc fusion)
chain: TIPPHVQKSDVEMEAQKDEIICPSCNRTAHPLRHINNDMIVTDNNGAVKFPQLCKFCDVRFSTCDNQKSCMSNCSITSICEKPQEVCVAVWRKNDENITLETVCHDPKLPYHDFILEDAASPKCIMKEKKKPGETFFMCSCSSDECNDNIIFSEEYNTSNPD
notes: Bought from R&D Systems; also called TβRIIlong-Fc; not shown: Fc fusion partner of the purchased construct is not described for this follow-up analysis

Assay [1] addresses B2. Put plainly: surface plasmon resonance at 37° C., mGDF15.
The target of assay [2] is T2, ALK3 receptor-Fc fusion protein (human, UniProt P36894 24-152).
T2 construct: Bought from R&D Systems or made in-house; not shown: IgG1 Fc domain
Description: surface plasmon resonance with captured receptor-Fc fusion proteins. From the text:
(§1) These fusion proteins incorporated an IgG1 Fc domain and were either purchased from R&D Systems or generated in-house.

Assay [3] addresses T1, ALK6 receptor-Fc fusion protein. The description is as above.
Source text: as §1

Assay [4] concerns the target T3, GDF15 (human or murine, not specified where printed).
T3 construct: Used here only where the species cannot be told
Put plainly: surface plasmon resonance, receptor-Fc captured, GDF15 as analyte.
Source text: as §1
Background: In SPR one partner is held on a chip, and binding of the other changes the refractive index at the surface.

In assay [5] the target is B2. Description: surface plasmon resonance at 37° C., hTβRII-Fc captured, hGDF15 as analyte; 37° C.; hTβRII-Fc captured, hGDF15 as analyte.
Source text: as §1

The target in assay [6] is B1. Description: surface plasmon resonance with captured receptor-Fc fusion proteins.
Source text: as §1

Assay [7] concerns the target B1. Put plainly: surface plasmon resonance at 37° C., mGDF15.

T2 sequence (P36894 24-152 limits assumed): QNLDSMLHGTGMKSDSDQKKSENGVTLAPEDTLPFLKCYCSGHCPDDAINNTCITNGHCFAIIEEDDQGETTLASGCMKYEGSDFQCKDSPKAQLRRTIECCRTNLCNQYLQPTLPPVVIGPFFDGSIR

Molecule B1 came in with a Kd in assay [1] of 4.8 nM. Besides, the binding result in assay [2] and in assay [3] was “no binding (tested: 20 nM or 200 nM)” in each case.
In the case of B2, in assay [4], the koff came out at 0.001 s⁻¹ and the kon was found to be 292000 M⁻¹ s⁻¹.
Consider B3, for which, in assay [5], the Kd amounted to 9.56 nM.
Consider B4, for which the binding result in assay [6] was “no binding (tested: 20 nM or 200 nM)”.
On the same count and under the same terms, the value for B5 was “no binding (tested: 20 nM or 200 nM)”; that for B6 was “no binding (tested: 20 nM or 200 nM)”; that for B7 was “no binding (tested: 20 nM or 200 nM)”.
Turning to B8, binding in assay [7] was characterised by a dissociation constant (Kd) of 2.7 nM.

(Values after patent publication US20150056199A1 (ACCELERON PHARMA, published 2015).)
